Assay results from the supplement of paper PMC7877785.
± gives the uncertainty stated by the source.

Test: self-splicing fitness, log relative to wild type (ln ratio); higher = more splicing; Tetrahymena group I intron in knt gene, E. coli kanamycin selection, DiMSum; sequences stand for … in CUCUCU…GGAGGGAAAAGUUAUCAGGCAUGCACCUGGUAGCUAGUCUUUAAACCAAUAGAUUGCAUCGGUUUAAAAGGCAAGACCGUCAAAUUGCGGGAAAGGGGUCAACAGCCGUUCAGUACCAAGUCUCAGGGGAAACUUUGAGAUGGCCUUGCAAAGGGUAUGGUAAUAAGCUGACGGACAUGGUCCUAACCACGCAGCCAAGUCCUAAGUCAACAGAUCUUCUGUUGAUAUGGAUGCAGUUCACAGACUAAAUGUCGGUCGGGGAAGAUGUAUUCUUCUCAUAAGAUAUAGUCGGACCUCUCCUUAAUGGGAGCUAGCGGAUGAAGUGAUGCAACACUGGAGCCGCUGGGAACUAAUUUGUAUGCGAAAGUAUAUUGAUUAGUUUUGGAGUACUCGUGGUCG
In short: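 Fitness was computed with DiMSum as the error-weighted combination of replicate fold changes, kanamycin versus none, each normalised to wild type. The library randomised all eight intron nucleotides of the P1ex region, with the intron placed in the knt kanamycin-resistance gene on pET-22b(+) in E. coli BL21(DE3). Six replicate transformations were grown overnight at 37°C or 30°C on LB agar with or without 25 μg/mL kanamycin, plus 100 μg/mL carbenicillin, 50 μM IPTG and 0.2% rhamnose. Pooled colonies were amplicon-sequenced on an Illumina HiSeq 2500.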

| Sequence | self-splicing fitness (ln) (30 °C) | self-splicing fitness (ln) (37 °C) |
| --- | --- | --- |
| GAUUAGCAAUAUUACGGACC | -0.347 ± 0.18 | -0.379 ± 0.16 |
| GAUUAGCAAUAUUACGGAUU | -3.17 ± 0.21 | -2.13 ± 0.23 |
| GAUUAGCAAUAUUACGGCAU | -0.835 ± 0.11 | 0.24 ± 0.12 |
| GAUUAGCAAUAUUACGGCCG | -1.01 ± 0.13 | -1.01 ± 0.19 |
| GAUUAGCAAUAUUACGGCGU | -0.737 ± 0.068 | -0.796 ± 0.062 |
| GAUUAGCAAUAUUACGGGAU | -2.76 ± 0.2 | -1.14 ± 0.18 |
| GAUUAGCAAUAUUACGGGGC | -3.62 ± 0.49 | -2.97 ± 0.3 |
| GAUUAGCAAUAUUACGGUCC | -3.27 ± 0.39 | – |
| GAUUAGCAAUAUUACGUAUA | -2.65 ± 0.22 | -0.643 ± 0.19 |
| GAUUAGCAAUAUUACGUCAG | -3.51 ± 0.35 | -4.23 ± 0.46 |
| GAUUAGCAAUAUUACGUCUU | -0.485 ± 0.086 | -0.732 ± 0.088 |
| GAUUAGCAAUAUUACGUGUG | -2.13 ± 0.077 | -1.61 ± 0.075 |
| GAUUAGCAAUAUUACGUGUU | -2.85 ± 0.22 | -1.66 ± 0.14 |
| GAUUAGCAAUAUUACGUUGA | -2.8 ± 0.22 | -2.25 ± 0.19 |
| GCAAAGCAAUAUUACGAACC | -0.831 ± 0.13 | -0.43 ± 0.17 |
| GCAAAGCAAUAUUACGAAUA | -2.56 ± 0.17 | -0.704 ± 0.13 |
| GCAAAGCAAUAUUACGACAA | -1.43 ± 0.1 | -0.838 ± 0.087 |
| GCAAAGCAAUAUUACGACGA | -0.0819 ± 0.088 | -0.213 ± 0.1 |
| GCAAAGCAAUAUUACGACGG | -2.23 ± 0.13 | -1.2 ± 0.2 |
| GCAAAGCAAUAUUACGAUCU | -0.767 ± 0.087 | -0.252 ± 0.099 |
| GCAAAGCAAUAUUACGCAAA | -1.95 ± 0.1 | -1.58 ± 0.1 |
| GCAAAGCAAUAUUACGCACG | -1.83 ± 0.12 | -0.806 ± 0.11 |
| GCAAAGCAAUAUUACGCGAU | -2.8 ± 0.23 | -2.73 ± 0.3 |
| GCAAAGCAAUAUUACGCGUA | -0.985 ± 0.075 | -0.362 ± 0.071 |
| GCAAAGCAAUAUUACGGCCG | -0.0405 ± 0.18 | -1.41 ± 0.33 |

| Sequence | self-splicing fitness (ln) (30 °C) | self-splicing fitness (ln) (37 °C) |
| --- | --- | --- |
| GCAAAGCAAUAUUACGGCCU | -0.867 ± 0.12 | -0.967 ± 0.16 |
| GCAAAGCAAUAUUACGGCGG | -1.18 ± 0.13 | -2.07 ± 0.2 |
| GCAAAGCAAUAUUACGGGGA | -2.9 ± 0.16 | -1.99 ± 0.15 |
| GCAAAGCAAUAUUACGGUAC | -1.91 ± 0.086 | 0.0303 ± 0.092 |
| GCAAAGCAAUAUUACGGUGC | -2.45 ± 0.12 | -3.66 ± 0.27 |
| GCAAAGCAAUAUUACGGUGU | -4.55 ± 0.29 | -2.71 ± 0.25 |
| GCAAAGCAAUAUUACGUGCG | -0.856 ± 0.067 | -0.144 ± 0.095 |
| GCAAAGCAAUAUUACGUUCC | -0.778 ± 0.082 | -0.849 ± 0.14 |
| GCAAAGCAAUAUUACGUUGG | -1.94 ± 0.069 | -1.32 ± 0.09 |
| GCAAAGCAAUAUUACGUUUG | -4.2 ± 0.17 | -3.24 ± 0.15 |
| GCACAGCAAUAUUACGAACC | -0.135 ± 0.15 | 0.621 ± 0.18 |
| GCACAGCAAUAUUACGAACU | -0.419 ± 0.056 | -0.167 ± 0.072 |
| GCACAGCAAUAUUACGACAA | -1.18 ± 0.087 | -1.22 ± 0.087 |
| GCACAGCAAUAUUACGACCU | -0.6 ± 0.11 | -0.325 ± 0.13 |
| GCACAGCAAUAUUACGACGG | -1.34 ± 0.098 | -0.832 ± 0.13 |
| GCACAGCAAUAUUACGACUU | -0.119 ± 0.076 | 0.33 ± 0.088 |
| GCACAGCAAUAUUACGAGAG | -2.96 ± 0.14 | -1.33 ± 0.11 |
| GCACAGCAAUAUUACGCACC | -0.769 ± 0.13 | 0.129 ± 0.15 |
| GCACAGCAAUAUUACGCAGA | -3.16 ± 0.28 | -3.06 ± 0.29 |
| GCACAGCAAUAUUACGCAGG | -3.5 ± 0.18 | -2.74 ± 0.18 |
| GCACAGCAAUAUUACGCGGU | -4.01 ± 0.2 | -1.87 ± 0.11 |
| GCACAGCAAUAUUACGCUGG | -3.29 ± 0.18 | -1.92 ± 0.15 |
| GCACAGCAAUAUUACGGAAC | -1.06 ± 0.086 | -0.752 ± 0.12 |
| GCACAGCAAUAUUACGGAGG | -2 ± 0.099 | -0.502 ± 0.11 |
| GCACAGCAAUAUUACGGAUU | -0.914 ± 0.055 | -0.231 ± 0.073 |

| Sequence | self-splicing fitness (ln) (30 °C) | self-splicing fitness (ln) (37 °C) |
| --- | --- | --- |
| GCACAGCAAUAUUACGGCAA | -1.31 ± 0.13 | -0.887 ± 0.14 |
| GCACAGCAAUAUUACGGCCA | -1.84 ± 0.21 | -0.441 ± 0.19 |
| GCACAGCAAUAUUACGGCUG | -3.49 ± 0.13 | -2.4 ± 0.14 |
| GCACAGCAAUAUUACGGGGC | -3.43 ± 0.16 | -2.62 ± 0.18 |
| GCACAGCAAUAUUACGGUCU | -0.685 ± 0.042 | 0.63 ± 0.06 |
| GCACAGCAAUAUUACGGUGG | -1.54 ± 0.048 | -1.35 ± 0.07 |
| GCACAGCAAUAUUACGGUUG | -2.18 ± 0.059 | -1.02 ± 0.072 |
| GCACAGCAAUAUUACGUCGG | -1.72 ± 0.1 | -1.09 ± 0.13 |
| GCACAGCAAUAUUACGUGAC | -1.13 ± 0.089 | -1.97 ± 0.1 |
| GCACAGCAAUAUUACGUUCG | -0.717 ± 0.065 | -0.441 ± 0.085 |
| GCAGAGCAAUAUUACGACCG | -3.12 ± 0.46 | – |
| GCAGAGCAAUAUUACGAGCA | -2.32 ± 0.24 | -2.4 ± 0.34 |
| GCAGAGCAAUAUUACGAGGU | – | -2.24 ± 0.31 |
| GCAGAGCAAUAUUACGAGUC | -2.97 ± 0.25 | -2.39 ± 0.32 |
| GCAGAGCAAUAUUACGAUAC | -2.79 ± 0.28 | -0.699 ± 0.22 |
| GCAGAGCAAUAUUACGAUAU | -3.38 ± 0.29 | -1.72 ± 0.2 |
| GCAGAGCAAUAUUACGAUGC | -4.01 ± 0.32 | -1.99 ± 0.18 |
| GCAGAGCAAUAUUACGCAUC | -3.14 ± 0.34 | – |
| GCAGAGCAAUAUUACGCGAU | -2.94 ± 0.36 | – |
| GCAGAGCAAUAUUACGCGUC | -3.88 ± 0.2 | -2.03 ± 0.14 |
| GCAGAGCAAUAUUACGCUGU | -2.66 ± 0.18 | -2.87 ± 0.23 |
| GCAGAGCAAUAUUACGGACU | -2.18 ± 0.34 | -1.9 ± 0.21 |
| GCAGAGCAAUAUUACGGUGG | -3.65 ± 0.33 | -2.21 ± 0.21 |
| GCAGAGCAAUAUUACGGUGU | -4.3 ± 0.32 | -2.31 ± 0.16 |
| GCAGAGCAAUAUUACGUAAU | -2.29 ± 0.21 | -1.95 ± 0.35 |

| Sequence | self-splicing fitness (ln) (30 °C) | self-splicing fitness (ln) (37 °C) |
| --- | --- | --- |
| GCAGAGCAAUAUUACGUCAG | – | -2.97 ± 0.29 |
| GCAGAGCAAUAUUACGUGGG | -3.55 ± 0.12 | -3.03 ± 0.15 |
| GCAUAGCAAUAUUACGAAAG | -2.72 ± 0.2 | -2.69 ± 0.24 |
| GCAUAGCAAUAUUACGAAGG | -2.02 ± 0.2 | -1.31 ± 0.22 |
| GCAUAGCAAUAUUACGAAGU | -3.88 ± 0.28 | – |
| GCAUAGCAAUAUUACGACCU | -0.833 ± 0.15 | -0.375 ± 0.15 |
| GCAUAGCAAUAUUACGACUC | -0.352 ± 0.16 | 0.841 ± 0.13 |
| GCAUAGCAAUAUUACGAGGU | -3.73 ± 0.4 | -2.07 ± 0.4 |
| GCAUAGCAAUAUUACGAGUU | -3.15 ± 0.13 | -1.33 ± 0.1 |
| GCAUAGCAAUAUUACGAUAA | -2.1 ± 0.15 | -1.27 ± 0.13 |
| GCAUAGCAAUAUUACGCCGC | – | -1.28 ± 0.27 |
| GCAUAGCAAUAUUACGCGGA | – | -1.69 ± 0.31 |
| GCAUAGCAAUAUUACGCUUC | – | -2.69 ± 0.19 |
| GCAUAGCAAUAUUACGGACA | -1.74 ± 0.15 | -0.572 ± 0.14 |
| GCAUAGCAAUAUUACGGGCU | -2.22 ± 0.23 | -0.579 ± 0.17 |
| GCAUAGCAAUAUUACGGGGU | -3.74 ± 0.23 | -1.99 ± 0.13 |
| GCAUAGCAAUAUUACGUAAC | -2.24 ± 0.13 | -1.57 ± 0.14 |
| GCAUAGCAAUAUUACGUACU | -0.89 ± 0.07 | -0.056 ± 0.079 |
| GCAUAGCAAUAUUACGUCGU | -3.44 ± 0.17 | -1.06 ± 0.13 |
| GCCAAGCAAUAUUACGAAAA | -2.45 ± 0.27 | -1.54 ± 0.2 |
| GCCAAGCAAUAUUACGAAUC | -1.25 ± 0.078 | -1.5 ± 0.095 |
| GCCAAGCAAUAUUACGAAUU | -3.39 ± 0.13 | -1.51 ± 0.1 |
| GCCAAGCAAUAUUACGACCC | -0.14 ± 0.14 | -0.813 ± 0.17 |
